Measurements from publication PMC7725820, “Heme biosynthesis depends on previously unrecognized acquisition of iron-sulfur cofactors in human amino-levulinic acid dehydratase” (Nature Communications, 2020).
Residue numbers refer to the chain shown, from its start.

B1: N-terminally MBP-tagged human ALAD, wild type (MBP-ALAD) (enzyme, UniProt P13716 1-330, looked up)
chain: MQPQSVLHSGYFHPLLRAWQTATTTLNASNLIYPIFVTDVPDDIQPITSLPGVARYGVKRLEEMLRPLVEEGLRCVLIFGVPSRVPKDERGSAADSEESPAIEAIHLLRKTFPNLLVACDVCLCPYTSHGHCGLLSENGAFRAEESRQRLAEVALAYAKAGCQVVAPSDMMDGRVEAIKEALMAHGLGNRVSVMSYSAKFASCFYGPFRDAAKSSPAFGDRRCYQLPPGARGLALRAVDRDVREGADMLMVKPGMPYLDIVREVKDKHPDLPLAVYHVSGEFAMLWHGAQAGAFDLKAAVLEAMTAFRRAGADIIITYYTPQLLQWLKEE
notes: aminolevulinic acid dehydratase (ALAD), human, wild type; One [Fe4S4] cluster per monomer when purified anaerobically; The three cofactor states (Fe-S, apo, zinc) are told apart by the assay; the ~480 kD hexamer fits it; also called ALAD WT; [Fe4S4]-ALAD; source: E. coli BL21(DE3), expressed along with the A. vinelandii isc operon, purified anaerobically (amylose resin); also purified …
B2: MBP-ALAD C162A (enzyme, human, UniProt P13716 1-330, looked up)
chain: B1 chain with C162A
notes: aminolevulinic acid dehydratase (ALAD), human; source: E. coli BL21(DE3), expressed along with the isc operon, purified anaerobically (amylose resin); not shown: MBP, N-terminal, kept
B3: MBP-ALAD C122A (enzyme, human, UniProt P13716 1-330, looked up)
chain: B1 chain with C122A
notes: as for B2
B4: MBP-ALAD K252M (enzyme, human, UniProt P13716 1-330, looked up)
chain: B1 chain with K252M
notes: as for B2
B5: MBP-ALAD C119A (enzyme, human, UniProt P13716 1-330, looked up)
chain: B1 chain with C119A
notes: as for B2
B6: MBP-ALAD C223A (enzyme, human, UniProt P13716 1-330, looked up)
chain: B1 chain with C223A
notes: as for B2
B7: MBP-ALAD Mut AFR-AAA (enzyme, human, UniProt P13716 1-330, looked up)
chain: B1 chain with F307A, R308A
notes: aminolevulinic acid dehydratase (ALAD), human, Ala306-Phe307-Arg308 motif replaced by alanines; source: E. coli BL21(DE3), expressed along with the isc operon, purified anaerobically (amylose resin); not shown: MBP, N-terminal, kept
B8: MBP-ALAD C132A (enzyme, human, UniProt P13716 1-330, looked up)
chain: B1 chain with C132A
notes: as for B2
B9: MBP-ALAD C124A (enzyme, human, UniProt P13716 1-330, looked up)
chain: B1 chain with C124A
notes: as for B2

Target: the molecule itself
Assay: native gel or EMSA; NativePAGE Bis-Tris gel; aerobically purified, EDTA-treated metal-free wild-type ALAD (aero-apo-ALAD WT)

Stoichiometry N, 6:
B1

Target: the molecule itself
Assay: native gel or EMSA; NativePAGE Bis-Tris gel; MBP-ALAD proteins expressed along with the isc operon in E. coli and purified anaerobically

Stoichiometry N, 6:
B2
B3
B4
B5
B6
B7
B8
B9
